# Source: publication PMC12871924, “Human FASTK preferentially binds single‐stranded and G‐rich RNA”
# T1: FASTK∆N1-75 (Homo sapiens, UniProt Q14296 76-549, del1-75)
# T1 sequence: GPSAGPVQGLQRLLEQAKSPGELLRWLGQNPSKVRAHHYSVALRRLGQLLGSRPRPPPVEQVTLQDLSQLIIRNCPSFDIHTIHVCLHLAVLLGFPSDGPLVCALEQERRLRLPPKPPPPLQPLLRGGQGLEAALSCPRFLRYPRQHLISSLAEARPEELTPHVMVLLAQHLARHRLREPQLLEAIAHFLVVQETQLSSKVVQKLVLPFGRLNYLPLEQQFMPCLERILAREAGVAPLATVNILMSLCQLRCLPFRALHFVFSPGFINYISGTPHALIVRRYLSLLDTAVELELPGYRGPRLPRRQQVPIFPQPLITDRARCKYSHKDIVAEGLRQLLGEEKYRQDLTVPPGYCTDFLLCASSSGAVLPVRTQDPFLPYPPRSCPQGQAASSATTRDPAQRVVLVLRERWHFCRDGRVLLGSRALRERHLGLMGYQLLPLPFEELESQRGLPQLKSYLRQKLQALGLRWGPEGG
# T2: FASTK∆N1-75 R249/R251 mutant (Homo sapiens, UniProt Q14296 76-549, R249A;R251A;del1-75)
# T2 sequence: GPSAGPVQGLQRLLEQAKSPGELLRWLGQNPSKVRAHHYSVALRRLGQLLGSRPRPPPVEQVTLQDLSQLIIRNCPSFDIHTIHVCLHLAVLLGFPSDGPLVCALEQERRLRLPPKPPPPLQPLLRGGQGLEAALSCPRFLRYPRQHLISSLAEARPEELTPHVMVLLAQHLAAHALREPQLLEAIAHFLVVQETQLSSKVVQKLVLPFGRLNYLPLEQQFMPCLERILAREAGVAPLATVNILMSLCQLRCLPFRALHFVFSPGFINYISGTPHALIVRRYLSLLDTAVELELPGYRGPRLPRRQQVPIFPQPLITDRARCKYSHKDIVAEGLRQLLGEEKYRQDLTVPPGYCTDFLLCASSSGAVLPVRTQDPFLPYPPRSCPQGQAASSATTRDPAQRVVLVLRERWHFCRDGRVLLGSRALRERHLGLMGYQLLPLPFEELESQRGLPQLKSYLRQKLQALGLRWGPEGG
# B1: ND6 oligo 10 G4kill mutant (ssRNA)
# RNA: GGAGGAUUGUUGUUUGGAAGGUGGAUGCGGAGGAAAUGUUGUUAGUAAUGAGAAAUCCUGCGAAUAGGCUUCCGG
# B2: ND6 oligo 10 (structured_RNA)
# RNA: GGGGGAUUGUUGUUUGGAAGGGGGAUGCGGGGGAAAUGUUGUUAGUAAUGAGAAAUCCUGCGAAUAGGCUUCCGG
# B3: ND6 oligo 5 G4kill mutant (ssRNA)
# RNA: GAGUGGUCAGAGUUGAUUCGUGAGGAUCCUAUUGGUGCGGAGGCUUUGUAUGAUUAUGUGCGUUGAUUAGUAGUAGUUACUGGUUGAACAUUGUUUGUUGGUGUAUAUAUUGUAAUUGAGAUUGC
# B4: ND6 oligo 5 (structured_RNA)
# RNA: GAGGGGUCAGGGUUGAUUCGGGAGGAUCCUAUUGGUGCGGGGGCUUUGUAUGAUUAUGGGCGUUGAUUAGUAGUAGUUACUGGUUGAACAUUGUUUGUUGGUGUAUAUAUUGUAAUUGAGAUUGC
# Columns and labels:
# FASTK∆N1-75 [1] = target: T1, FASTK∆N1-75; test: MST; MST: 1x PBS, 5% glycerol, 1 mM DTT, Tween-20 (0.05% in RNA stock), 20 nM RNA, 22 °C; RNA annealed in 50 mM Tris/HCl pH 7.5, 50 mM KCl (or LiCl), 50 mM NaCl; EMSA: same solutions, on ice; footprinting: 1x Structure Buffer, 37 °C; conditions: protein: recombinant, tags: His6-SUMO cleaved
# FASTK∆N1-75 [2] = target: T1, FASTK∆N1-75; test: MST; same as unmutated oligo 10; MST: 1x PBS, 5% glycerol, 1 mM DTT, Tween-20 (0.05% in RNA stock), 20 nM RNA, 22 °C; RNA annealed in 50 mM Tris/HCl pH 7.5, 50 mM KCl (or LiCl), 50 mM NaCl; EMSA: same solutions, on ice; footprinting: 1x Structure Buffer, 37 °C; conditions: protein: recombinant; tags: His6-SUMO cleaved; label: Cy5 body (CTP or UTP)
# FASTK∆N1-75 [3] = target: T1, FASTK∆N1-75; test: MST; K+ annealed; MST: 1x PBS, 5% glycerol, 1 mM DTT, Tween-20 (0.05% in RNA stock), 20 nM RNA, 22 °C; RNA annealed in 50 mM Tris/HCl pH 7.5, 50 mM KCl (or LiCl), 50 mM NaCl; EMSA: same solutions, on ice; footprinting: 1x Structure Buffer, 37 °C; conditions: protein: recombinant, tags: His6-SUMO cleaved, label: Cy5
# FASTK∆N1-75 [4] = target: T1, FASTK∆N1-75; test: MST; 100 mM K+, no Na+; better than AU-rich mutant; MST: 1x PBS, 5% glycerol, 1 mM DTT, Tween-20 (0.05% in RNA stock), 20 nM RNA, 22 °C; RNA annealed in 50 mM Tris/HCl pH 7.5, 50 mM KCl (or LiCl), 50 mM NaCl; EMSA: same solutions, on ice; footprinting: 1x Structure Buffer, 37 °C; conditions: protein: recombinant; tags: His6-SUMO cleaved; label: Cy5
# FASTK∆N1-75 [5] = target: T1, FASTK∆N1-75; test: MST; same as unmutated oligo 5; MST: 1x PBS, 5% glycerol, 1 mM DTT, Tween-20 (0.05% in RNA stock), 20 nM RNA, 22 °C; RNA annealed in 50 mM Tris/HCl pH 7.5, 50 mM KCl (or LiCl), 50 mM NaCl; EMSA: same solutions, on ice; footprinting: 1x Structure Buffer, 37 °C; conditions: protein: recombinant; tags: His6-SUMO cleaved; label: Cy5 body (CTP or UTP)
# [6] = target: T2, FASTK∆N1-75 R249/R251 mutant; test: MST; MST: 1x PBS, 5% glycerol, 1 mM DTT, Tween-20 (0.05% in RNA stock), 20 nM RNA, 22 °C; RNA annealed in 50 mM Tris/HCl pH 7.5, 50 mM KCl (or LiCl), 50 mM NaCl; EMSA: same solutions, on ice; footprinting: 1x Structure Buffer, 37 °C; conditions: protein: recombinant; tags: His6-SUMO cleaved; label: Cy5 body (CTP or UTP); 5' 32P in footprinting; predicted G4
binder,measurement,setting,value
CCCUCUGUCCCCUC (ssRNA) [C-rich short RNA],Kd,FASTK∆N1-75 [1]; label: Cy5,0.212 µM
UUUUCUGUUUUUUC (ssRNA) [U-rich short RNA],Kd,FASTK∆N1-75 [1]; label: Cy5,0.0632 µM
B1,binding result,FASTK∆N1-75 [2],binds
B2,Kd,"FASTK∆N1-75 [1]; label: Cy5 body (CTP or UTP), predicted G4",0.0185 µM
AAAUCUGUAAAAUC (ssRNA) [A-rich short RNA],Kd,FASTK∆N1-75 [1]; label: Cy5,0.0784 µM
UUAGAGUUAGUGUUAGAGUUAGUG (ssRNA) [TERRA AU-rich mutant],Kd,FASTK∆N1-75 [3],0.0064 µM
UUACCCUUACCCUUACCCUUACCC (ssRNA) [TERRA C-rich mutant],binding result,FASTK∆N1-75 [4],binds
GGGUCUGUGGGGUC (ssRNA) [G-rich short RNA (internal loop strand 2)],Kd,FASTK∆N1-75 [1]; label: Cy5,0.0027 µM
B3,binding result,FASTK∆N1-75 [5],binds
B4,Kd,"FASTK∆N1-75 [1]; label: Cy5 body (CTP or UTP), 5' 32P in footprinting, predicted G4",0.0255 µM
same,binding signal,[6],5 fold decrease vs wild type
UUAGGGUUAGGGUUAGGGUUAGGG (structured_RNA) [TERRA],Kd,FASTK∆N1-75 [3]; G4 intramolecular in K+,0.0024 µM
